Measurements as given in the DeepSol protein solubility set.

Experiment: soluble on expression in E. coli; label from the status in PepcDB or PDB records

Sequence | soluble on expression in E. coli
SLTITVLQGGNVLDLERGVLLEHHHVVIDGERIVEVTDRPVDLPNAQAIDVRGKTVMPGFIDCHVHVLASNANLGVNATQPNILAAIRSLPILDAMLSRGFTSVRDAGGADWSLMQAVETGLVSGPRIFPSGKALSQTGGHGDFRPRGDLLEPCSCCFRTGAIARVVDGVEGVRLAVREEIQKGATQIKIMASGGVASPTDPIANTQYSEDEIRAIVDEAEAANTYVMAHAYTGRAIARAVRCGVRTIEHGNLVDEAAAKLMHEHGAFVVPTLVTYDALAKHGAEFGMPPESVAKVASVQQKGRESLEIYANAGVKMGFGSDLLGEMHAFQSGEFRIRAEVLGNLEALRSATTVAAEIVNMQGQLGVIAVGAIADLVVLDGNPLEDIGVVADEGARVEYVLQRGTLVKRQAGGR | not soluble
MGSDKIHHHHHHMSIPQQTDALDQAPSTAGCRVPYRVFTDRQYYDREQENIFKGNCWSFVGLEAEVPQAGDFKSTFVGETPVILTRDSDGSLHVVVNRCAHRGALVCREMRGNRASLECVYHQWAYDLKGNLIGVPFRRGLKGQGGMPGDFDMSQHNLRQLRTESVGGLVFASFSETVESCRDFLGPIVVEQIERIMCKPITVLGDQRQRIRGNWKLYAENTRDPYHASLLHLFHNTFGLYRSTQTGKALMDANKRHSLLYSIAASNDDAADKQAYGDSRTFDTEFKLQDMSLLKGRQEFADNVTLVILAVYPNLVLQQIQNTLAVRQTVTYGPDEFELVWTHFGYQDDDAEMQAIRLKQANLIGPAGLISMEDGEAVEIVQNAIVGEASATSYIAMGGGRAEDADHLVTEGAIIGFWDNYREMVGFEVEPT | not soluble
MGSDKIHHHHHHLPQLLSAMRGPGTRSPDMPYARKTLAQIRSDAMADIAAALQGSDPLLRFAALKIIGVVLAGMTNEEYGYLDWIAKQTNPFTADDEYLEAWGALKKVYRKDASAASLSATFTGVAGKLLDDGTPVVRSDGATYTTSGTQTVVGTSVTVTIVADVAGAAGNADPGTVVALDIAVDGIQSTGAVIGTVSSGADIEDQEDYRARVLAKYQQPPQGGAAPDYVEWATDVAGVTRAWCAPNGFGAGTVVVYVMLDDAQAAHGGFPQGTDGVSQHDQGPGGLPRGTVATGDQLVVADAIVTLQPGTALVWICSPVENVLSFELTGSAGWSTAIRNAVKAQISDVFFRNGDPRGGTIDRSDINSAIAAVPGTAGFVITSITGVISGTPTTYPANITGSFGSLPVLGEVTFG | not soluble
LGSMAAAAAQGGGGGEPRRTEGVGPGVPGEVEMVKGQPFDVGPRYTQLQYIGEGAYGMVSSAYDHVRKTRVAIKKISPFEHQTYCQRTLREIQILLRFRHENVIGIRDILRASTLEAMRDVYIVQDLMETDLYKLLKSQQLSNDHICYFLYQILRGLKYIHSANVLHRDLKPSNLLINTTCDLKICDFGLARIADPEHDHTGFLTEYVATRWYRAPEIMLNSKGYTKSIDIWSVGCILAEMLSNRPIFPGKHYLDQLNHILGILGSPSQEDLNCIINMKARNYLQSLPSKTKVAWAKLFPKSDSKALDLLDRMLTFNPNKRITVEEALAHPYLEQYYDPTDEPVAEEPFTFAMELDDLPKERLKELIFQETARFQPGVLEAP | soluble
MGGSHHHHHHGMASALRTDKKSEFLKALKRDRVEEEHEDESRAGSEKDDDSFNLHNSNSTHQERDINRNFDENEIPQENGNASVISQQIIRSSTFPQTDVLSSSLEAEHRLLKEMGWQEDSENDETCAPLTEDEMREFQVISEQLQKNGLRKNGILKNGLICDFKFGPWKNSTFKPTTENDDTETSSSDTSDDDDV | not soluble
MKRLSLREAWPYLKDLQQDPLAVLLEWGRAHPRLFLPLPRFPLALIFDPEGVEGALLAEGTTKATFQYRALSRLTGRGLLTDWGKSWKEARKALKDPFLPKSVRGYREAMEEEAWAFFGEWRGEERDLDHEMLALSLRLLGRALFGKPLSPSLAEHALKALDRIMAQTRSPLALLDLAAEARFRKDRGALYREAEALIVHPPLSHLPRERALSEAVTLLVAGHETVASALTWSFLLLSHRPDWQKRVAESEEAALAAFQEALRLYPPAWILTRRLERPLLLGEDRLPQGTTLVLSPYVTQRLYFPEGEAFQPERFLAERGTPSGRYFPFGLGQRLCLGRDFALLEGPIVLRAFFRRFRLDPLPFPRVLAQVTLRPEGGLPARPREGVRA | soluble
MSKHTLIRRAVLEKLESVTGAPVTLFDGLPAFVEQEDLPAIAVWLTDAQYTGLMTDEDDWQATLHTAVFLRAQAPDTELDIWMEEKIFPALEEVSGLERLIDTMTPLGYDYQRDSEMATWGMAEITYRITYTN | soluble
HDKVVVLEAKNGNVTFDHKKHAGVKGECKACHETEAGGKIAGMGKDWAHKTCTGCHKEMGKGPTKCGECHKK | soluble
MSILDGFKEVGESNNGKLTMTVMLESVRFSKNVSAVLGFPKYVKVLVNNDEKKFAIQKCNDKDEYAIRFATKKPGEASAVTLRNVDLLVATQKFFSFPELDDPTKIAFYALDGEYYSDEQVIVFNVEGAKNGTVGKRGPKAGSHRKTSQAKLEHHHHHH | soluble
MEKYPEIQQMRSKMREGDDTNEFKIRPLKGLSHPSGNLQMQRFQEDRRERIHSIRKRENQDGRLDLIGVVGEITVVIDDVVYEEEKLRKVVFTMKG | not soluble
MGSDKIHHHHHHMDKMKAITFFDLDGTLLDGTSQITPEITAAVAALKDNQILPLIATGRTLCEIQPIMKASGIDSAIVMNGQFIHYEGKTIYSDEFTTEECVSLHEHVKQRGHELAFYNERRIFCTGHTGTVKQAYDYIHSAVPEIDPTGYENDAVNMMLVLSQHGDDDEYYYERFPELTFYRNGPFSIDIVRKGVSKGSGVKNLFNTLGLNGIPTYAFGDGINDLALFEACDYGIAMGNAREELKEKATFISTKNTENGIVNGLKKFDLL | not soluble
MANFESSVKVIPYSQERVYAKLSDLSNLESVKGRLPEDKIQDLSFDSDTLSFSVSPIGQLTLQIVEREPCKCIKLATTNSPLPFNMWIQLVSTAEEECKLKVTISMDINPFMKAMVQKPLQDGLEKMVEMLSMINYLEHHHHHH | soluble
MSLGGEVRGPVAVADFAKHVAQLHADGDIGFSKEYEAIQGEALNDEYPSENSQHPENKGKNRYLNVIAYDHSRVHLRQVPGQKKHLDYINANFIDGYQKPRAFIGTQGPLPGTFDCFWRMVWEQRVAVIVMITNLVERGRRKCDMYWPKDGTETYGIIQVRLVKEDVMATYTVRTLHIKHLKMKKKKQSQMEKTVYQYHYTNWPDHGTPDHPLPVINFVKKSTTANLPDGGPIVVHSSAGVGRTGTFIVLDAMLKQIEAKGSLNVFGFLRYIRAQRNYLVQTEEQYIFIHDALVEAITSGETNEGHHHHHH | soluble
MHRKRERERERERERERERERERERERERERGRDEETSKEKRVTET | soluble
MTAEVMSHVTAHFGKTLEECREESGLSVDILDEFKHFWSDDFDVVHRELGCAIICMSNKFSLMDDDVRMHHVNMDEYIKSFPNGQVLAEKMVKLIHNCEKQFDTETDDCTRVVKVAACFKEDSRKEGIAPEVAMVEAVIEKY | soluble
MGSDKIHHHHHHLDELRSGLDKPSHFRLGLAMWSHSNWQESVYGHGIKQAERLARYATIFNTVEGNTSFYATPAQQTVMNWHSATPDDFRFTFKLPQTITHQRLLQHCGQELKDFFQVMAPLIDKTGIWKIQLPAHFGPENLPVLAQFLNQVPQGLTYGVEVRHAAFFAKGDAERALNRLLIDKKVNRIIMDSRPLFALPPSNAAIIDAHKKKPRVPVHAIATANNPVVRFIGQPDDAVAQLAQQGVSALPKNNDAFFDNWLAQLPLWLAEGREPYLFIHTPDNETAPELAIRLYQTLRSQIAAQIQLAELSLLEKIPEETSTQMGLAW | not soluble
MILSDKDIIDYVTSKRIIIKPFNKDFVGPCSYDVTLGDEFIIYDDEVYDLSKELNYKRIKIKNSILVCPLNYNLTEEKINYFKEKYNVDYVVEGGVLGTTNEYIELPNDISAQYQGRSSLGRVFLTSHQTAGWIDAGFKGKITLQIVAFDKPVILYKNQRIGQLIFSKLLSPADVGYSERKTSKYAYQKSVMPSLIHLDNHKKD | soluble
MKRLTIEMLPTLIGNEKLLVDCLFILFCTLKTKSLPPIRVLVRTNQSNLILDTLYEKLSKAVDKKLIFVASPEKPFDVIITDIFSEVSVKSTVPTYYVDFSASIGELAQSLENLNTQIVTKQSPRHF | not soluble
MSGIPSQGVASGMREAARALLAVLEPEQVRELRAGPDRLDTPELREWTYLPGPRPGLSTEGLDGRQREVVDALLTTAHSAAGAELVRGAIEVERHPRARAGHPGPDRYWVRLLGDPGGDEPWGWRLNGHHLAVHVLVTAAGVRVTPHFVGAEPARTGNGPRPGLRPLGPEEDLARELITSLGGTARASALFAATPPDDILTRADPFADPGLLPEGLRYDRLAPGQQRLLERLVGRYLDRAPEAYARECWSDAVRRGLGSLSFAWAGGLAPGDRHYYCVRAPDFLIEYDNTQDDGNHAHSVWRHVRHDWGTDLLRGHYTEQHFLEHHHHHH | not soluble
SLIDFHFHAPVKEFLDFLGEFGEPAIKYFNAKVEVKGLKETLDYYESFGIKRFVVLPIDSTTFLGRRIPNQVINLDDRIVKFISVDPSKPNADEELKRSIKEFEPVGVKLHPQLQGFHPLDERALKIYEIIDNHGLIVVFHTGTSGIGAGVKSSIRLDYGRPIYFDEIAVRFQNMKIILAHFGWPWTEEAIAIALHKPNVYLDLSGWAPRYIPQVIWSNAKRLSDKLLFGSDFPLIRPERWLEEFKSVNLSQDIKDKILKHNAEKLVKKS | soluble
MLTPTPDSSPRSTSSPSQSKNGSFTPRTANILKPLMSPPSREEIMATLLDHD | soluble
SDRPLSVHLNLGQKGNRKTSCPIKINQFEGHFMKLQADSNYLLSKEYEELKDVGRNQSCDIALLPENRGKNRYNNILPYDATRVKLSNVDDDPCSDYINASYIPGNNFRREYIVTQGPLPGTKDDFWKMVWEQNVHNIVMVTQCVEKGRVKCDHYWPADQDSLYYGDLILQMLSESVLPEWTIREFKICGEEQLDAHRLIRHFHYTVWPDHGVPETTQSLIQFVRTVRDYINRSPGAGPTVVHCSAGVGRTGTFIALDRILQQLDSKDSVDIYGAVHDLRLHRVHMVQTECQYVYLHQCVRDVLRARKLRSEQ | soluble
MKIRVADEKELPMILQFLTEVKAYMDVVGITQWTKDYPSQGDIQEDITKKRLYLLVHEEMIFSMATFCMEQEQDFVWLKRFATSPNYIAKGYGSLLFHELEKRAVWEGRRKMYAQTNHTNHRMIRFFESKGFTKIHESLQMNRLDFGSFYLYVKELENQSIV | soluble
MLGERIMSKLSKGIKDQASGLRNLSRNKPVKVIAVSAGKGGVGKSNISVNLAIALSQLNYSVMLLDADLGLANVDIMLGLHTKYNLSHVLQGICHLSDIILHGPAGVRVIPAASGTEFMTQLSPAEHAGIIDSFNELTDDLDYMIIDTAAGISETVLSFTRSSQELIVVVCDEPTSLTDAYALIKVMSKRYEWTHFHILANMVRNVKDGRDLFNKLFRVSGQFLDVQLDYLGAIPFDENIHKSVKKQNPILIAYPDSPAAHALRELAESVSNWSFKPSLGGNTSFFLERLVAGQF | not soluble
MAHHHHHHMVQVVHRHGERSALINDNKTEICGTLYPCGELTGERVKMVRAIGEFARSRYNDLSLVESPLCPSTQYNSSLVYTRPTHTQRTIQSATAFLHSLFQDDYFYPVAYSVNRTTDMLLSTDAVPSVVGRSWLDNQAVYPGLMEVNAAWFKYVFSWNHTSKLDLTQGSASQNLEQAMLANINAPPRLSPSYNMFHYSAHDTTVTPFAATFGDQGNTTMHPPFAVTSFVALLQDTADASGWYVRLIRSNPVKVASGTYVFRQTGIAVHCFDATGNRYRVSTGICPLDDFRRMVDHSRPAVADGHSAMTHAQYSNMGSPRTIADNKLVPLRCWIYRYACPSKSCPGSYILSAVDHQCYPQTDIPNSSSSEGTSSSDVSSFKKPANWMPRVSSPEKSRHIAADILRGVTNGVTVGAAVRKHDEYRRHC | not soluble
